Source: patent US12679878B2, “CRF2 receptor agonists and their use in therapy” (SANOFI, priority 2020, dated 2026)
Like-named read-outs stand apart in the source and are kept apart here. Starred links: 1 amine or outer side, 2 acyl side, 3 side chain; linkers in the order of their positions; H or OH if unused. Non-standard residues stand in square brackets, D forms with d. Residues, ends and D or L forms follow the SMILES beside them. Groups on a side chain read outwards from the residue. No end group written: not given here. *: point of attachment. C20 diacid = O=C(O)CCCCCCCCCCCCCCCCCCC(=O)*; C18 diacid = O=C(O)CCCCCCCCCCCCCCCCC(=O)*; γGlu = O=C(O)[C@H](CCC(=O)[*:2])N[*:1]; Palmitoyl = CCCCCCCCCCCCCCCC(=O)*; AEEA = NCCOCCOCC(=O)O; Aib = CC(C)(N)C(=O)O

T1: CRF1R receptor (Homo sapiens, UniProt P34998)
T1 construct: host or cells: CHO-K1 clone 2
T1 sequence (P34998 24-415): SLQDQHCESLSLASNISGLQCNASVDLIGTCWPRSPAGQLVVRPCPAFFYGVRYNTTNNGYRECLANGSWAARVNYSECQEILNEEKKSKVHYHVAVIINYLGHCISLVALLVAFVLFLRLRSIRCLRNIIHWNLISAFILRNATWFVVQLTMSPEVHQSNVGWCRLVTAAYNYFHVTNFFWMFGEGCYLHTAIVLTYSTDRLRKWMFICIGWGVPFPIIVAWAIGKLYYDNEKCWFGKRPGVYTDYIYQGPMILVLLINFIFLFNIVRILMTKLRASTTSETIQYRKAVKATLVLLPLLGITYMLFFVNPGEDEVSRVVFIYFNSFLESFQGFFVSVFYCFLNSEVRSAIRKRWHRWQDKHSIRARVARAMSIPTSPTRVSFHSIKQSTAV

T2: human CRF2α receptor (Homo sapiens, UniProt Q13324)
T2 construct: expressed in transfected cells; host or cells: TeloHEAC
T2 sequence (Q13324 1-411): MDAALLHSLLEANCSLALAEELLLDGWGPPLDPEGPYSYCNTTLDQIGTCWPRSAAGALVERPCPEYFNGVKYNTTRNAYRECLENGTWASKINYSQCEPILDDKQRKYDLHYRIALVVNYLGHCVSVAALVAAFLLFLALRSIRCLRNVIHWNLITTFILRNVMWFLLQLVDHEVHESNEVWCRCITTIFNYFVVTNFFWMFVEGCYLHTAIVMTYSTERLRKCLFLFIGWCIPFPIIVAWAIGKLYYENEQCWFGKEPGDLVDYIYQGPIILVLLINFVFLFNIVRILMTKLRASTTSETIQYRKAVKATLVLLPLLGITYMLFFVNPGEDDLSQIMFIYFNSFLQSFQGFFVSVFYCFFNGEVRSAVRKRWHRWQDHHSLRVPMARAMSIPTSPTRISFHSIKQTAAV

T3: CRF1R receptor (anti-target) (UniProt P34998 24-415, limits assumed)
T3 sequence (looked up): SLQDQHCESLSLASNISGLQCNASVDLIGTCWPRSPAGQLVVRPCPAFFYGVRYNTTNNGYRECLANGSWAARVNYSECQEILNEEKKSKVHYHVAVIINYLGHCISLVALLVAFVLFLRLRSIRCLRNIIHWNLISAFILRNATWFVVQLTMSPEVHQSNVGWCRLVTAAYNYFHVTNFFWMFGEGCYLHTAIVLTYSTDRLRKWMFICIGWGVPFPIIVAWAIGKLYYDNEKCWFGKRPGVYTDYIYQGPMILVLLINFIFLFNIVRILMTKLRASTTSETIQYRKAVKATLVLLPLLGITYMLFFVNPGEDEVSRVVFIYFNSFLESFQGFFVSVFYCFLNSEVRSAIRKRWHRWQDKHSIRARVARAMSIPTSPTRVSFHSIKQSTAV


Tests used:
CRF1R receptor = target: T1, CRF1R receptor; experiment: cAMP activity at anti-target CRF1R, CRF1R-overexpression CHO cell line (Example 9); assay type: cell-based; conditions: CRF1R-overexpression CHO cell line
In short: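 cAMP accumulation was read by HTRF after 30 min at room temperature of compound treatment. Cells were cryopreserved CHO cells overexpressing CRF1R, plated at 2000/well in IBMX (2 mM)-containing HBSS/HEPES buffer with 0 or 0.1% HSA. Activity was normalized to 1000 nM UCN2 as 100%.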

human CRF2α receptor = target: T2, human CRF2α receptor; experiment: cAMP agonism at human CRF2 α receptor in TeloHEAC cells (Example 7); assay type: cell-based; conditions: cAMP HTRF, TeloHEAC cells stably expressing human CRF2 α
In short: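 Steps: thaw and wash cells; suspend in 1×HBSS, 20 mM HEPES, 0 or 0.1% HSA, 2 mM IBMX; add compound, 30 min RT; lyse with HTRF reagents, 1 h; read 665/620 nm. EC50 calculated, E% versus 1000 nM UCN2.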

[1] = target: T3, CRF1R receptor (anti-target); experiment: cell-based or functional assay

| Molecule | EC50 (CRF1R receptor; 0% HSA) [nM] | Emax (CRF1R receptor; read-out: Emax (%)) [%] | EC50 (human CRF2α receptor; 0% HSA, read-out: EC50 [nM], 0% HSA) [nM] | EC50 (human CRF2α receptor; 0.1% HSA, read-out: EC50 [nM], 0.1% HSA) [nM] | EC50 [nM] 0% HSA (cAMP, HTRF) [1] [nM] | Emax (%) (100% = Sauvagine at 100 nM) [1] |
| --- | --- | --- | --- | --- | --- | --- |
| CC[C@H](C)[C@H](N)C(=O)N[C@H](C(=O)N[C@@H](CC(C)C)C(=O)N[C@@H](CO)C(=O)N[C@@H](CC(C)C)C(=O)N[C@@H](CC(=O)O)C(=O)N[C@@H](C(=O)N1CCC[C@H]1C(=O)N[C@H](C(=O)N[C@@H](CCCCN)C(=O)N[C@@H](CC(C)C)C(=O)N[C@@H](CCCCNC(=O)COCCOCCNC(=O)COCCOCCNC(=O)CC[C@H](NC(=O)CC[C@H](NC(=O)CCCCCCCCCCCCCCCCCCC(=O)O)C(=O)O)C(=O)O)C(=O)N[C@@H](CCC(N)=O)C(=O)N[C@H](C(=O)N[C@@H](CC(C)C)C(=O)N[C@@H](CC(C)C)C(=O)N[C@@H](CCCCN)C(=O)N[C@@H](CCC(N)=O)C(=O)N[C@@H](CCC(=O)O)C(=O)N[C@@H](CCCNC(=N)N)C(=O)N[C@@H](CCC(N)=O)C(=O)N[C@@H](CCCCN)C(=O)NC(C)(C)C(=O)N[C@@H](CCC(N)=O)C(=O)N[C@@H](CCCNC(=N)N)C(=O)N[C@@H](CCC(=O)O)C(=O)N[C@@H](CCC(N)=O)C(=O)N[C@@H](C)C(=O)N[C@@H](CCC(=O)O)C(=O)N[C@@H](CCCCN)C(=O)N[C@@H](CC(N)=O)C(=O)N[C@@H](CCCCN)C(=O)N[C@@H](CCC(N)=O)C(=O)N[C@H](C(=O)N[C@@H](CC(C)C)C(=O)N[C@@H](C)C(=O)N[C@@H](CCC(N)=O)C(=O)N[C@H](C(N)=O)C(C)C)[C@@H](C)CC)[C@@H](C)CC)[C@@H](C)CC)C(C)C)C(C)C [compound 172] (H-IVLSLD[dV]PIKLK([AEEA-AEEA-γGlu-γGlu-C20 diacid])QILLKQERQK[Aib]QREQAEKNKQILAQV-NH2; N-terminus assumed) | > 1000 | 25.6 | 0.04 | 2.76 | – | – |
| IVLSLD[dV]PTKLK([γGlu-Palmitoyl])KKLLKQERKRKEREKAEKNARILERV-NH2 (N-terminus assumed; SMILES CCCCCCCCCCCCCCCC(=O)N[C@@H](CCC(=O)NCCCC[C@H](NC(=O)[C@H](CC(C)C)NC(=O)[C@H](CCCCN)NC(=O)[C@@H](NC(=O)[C@@H]1CCCN1C(=O)[C@H](NC(=O)[C@H](CC(=O)O)NC(=O)[C@H](CC(C)C)NC(=O)[C@H](CO)NC(=O)[C@H](CC(C)C)NC(=O)[C@@H](NC(=O)[C@@H](N)[C@@H](C)CC)C(C)C)C(C)C)[C@@H](C)O)C(=O)N[C@@H](CCCCN)C(=O)N[C@@H](CCCCN)C(=O)N[C@@H](CC(C)C)C(=O)N[C@@H](CC(C)C)C(=O)N[C@@H](CCCCN)C(=O)N[C@@H](CCC(N)=O)C(=O)N[C@@H](CCC(=O)O)C(=O)N[C@@H](CCCNC(=N)N)C(=O)N[C@@H](CCCCN)C(=O)N[C@@H](CCCNC(=N)N)C(=O)N[C@@H](CCCCN)C(=O)N[C@@H](CCC(=O)O)C(=O)N[C@@H](CCCNC(=N)N)C(=O)N[C@@H](CCC(=O)O)C(=O)N[C@@H](CCCCN)C(=O)N[C@@H](C)C(=O)N[C@@H](CCC(=O)O)C(=O)N[C@@H](CCCCN)C(=O)N[C@@H](CC(N)=O)C(=O)N[C@@H](C)C(=O)N[C@@H](CCCNC(=N)N)C(=O)N[C@H](C(=O)N[C@@H](CC(C)C)C(=O)N[C@@H](CCC(=O)O)C(=O)N[C@@H](CCCNC(=N)N)C(=O)N[C@H](C(N)=O)C(C)C)[C@@H](C)CC)C(=O)O) [peptide of SEQ ID NO: 25] | – | – | – | – | > 100 | 0.1 |
| IVLSLDVPIGLK([AEEA-AEEA-γGlu-C18 diacid])QKLLKQQRQRKERQQAEKNARILARV-NH2 (N-terminus assumed; SMILES CC[C@H](C)[C@H](N)C(=O)N[C@H](C(=O)N[C@@H](CC(C)C)C(=O)N[C@@H](CO)C(=O)N[C@@H](CC(C)C)C(=O)N[C@@H](CC(=O)O)C(=O)N[C@H](C(=O)N1CCC[C@H]1C(=O)N[C@H](C(=O)NCC(=O)N[C@@H](CC(C)C)C(=O)N[C@@H](CCCCNC(=O)COCCOCCNC(=O)COCCOCCNC(=O)CC[C@H](NC(=O)CCCCCCCCCCCCCCCCC(=O)O)C(=O)O)C(=O)N[C@@H](CCC(N)=O)C(=O)N[C@@H](CCCCN)C(=O)N[C@@H](CC(C)C)C(=O)N[C@@H](CC(C)C)C(=O)N[C@@H](CCCCN)C(=O)N[C@@H](CCC(N)=O)C(=O)N[C@@H](CCC(N)=O)C(=O)N[C@@H](CCCNC(=N)N)C(=O)N[C@@H](CCC(N)=O)C(=O)N[C@@H](CCCNC(=N)N)C(=O)N[C@@H](CCCCN)C(=O)N[C@@H](CCC(=O)O)C(=O)N[C@@H](CCCNC(=N)N)C(=O)N[C@@H](CCC(N)=O)C(=O)N[C@@H](CCC(N)=O)C(=O)N[C@@H](C)C(=O)N[C@@H](CCC(=O)O)C(=O)N[C@@H](CCCCN)C(=O)N[C@@H](CC(N)=O)C(=O)N[C@@H](C)C(=O)N[C@@H](CCCNC(=N)N)C(=O)N[C@H](C(=O)N[C@@H](CC(C)C)C(=O)N[C@@H](C)C(=O)N[C@@H](CCCNC(=N)N)C(=O)N[C@H](C(N)=O)C(C)C)[C@@H](C)CC)[C@@H](C)CC)C(C)C)C(C)C) [peptide of SEQ ID NO: 16] | – | – | – | – | > 100 | 0.4 |
| IVLSLD[dV]PTKLK([γGlu-Palmitoyl])KKLLKQERKRKERE[Aib]AEKNARILERV-NH2 (N-terminus assumed; SMILES CCCCCCCCCCCCCCCC(=O)N[C@@H](CCC(=O)NCCCC[C@H](NC(=O)[C@H](CC(C)C)NC(=O)[C@H](CCCCN)NC(=O)[C@@H](NC(=O)[C@@H]1CCCN1C(=O)[C@H](NC(=O)[C@H](CC(=O)O)NC(=O)[C@H](CC(C)C)NC(=O)[C@H](CO)NC(=O)[C@H](CC(C)C)NC(=O)[C@@H](NC(=O)[C@@H](N)[C@@H](C)CC)C(C)C)C(C)C)[C@@H](C)O)C(=O)N[C@@H](CCCCN)C(=O)N[C@@H](CCCCN)C(=O)N[C@@H](CC(C)C)C(=O)N[C@@H](CC(C)C)C(=O)N[C@@H](CCCCN)C(=O)N[C@@H](CCC(N)=O)C(=O)N[C@@H](CCC(=O)O)C(=O)N[C@@H](CCCNC(=N)N)C(=O)N[C@@H](CCCCN)C(=O)N[C@@H](CCCNC(=N)N)C(=O)N[C@@H](CCCCN)C(=O)N[C@@H](CCC(=O)O)C(=O)N[C@@H](CCCNC(=N)N)C(=O)N[C@@H](CCC(=O)O)C(=O)NC(C)(C)C(=O)N[C@@H](C)C(=O)N[C@@H](CCC(=O)O)C(=O)N[C@@H](CCCCN)C(=O)N[C@@H](CC(N)=O)C(=O)N[C@@H](C)C(=O)N[C@@H](CCCNC(=N)N)C(=O)N[C@H](C(=O)N[C@@H](CC(C)C)C(=O)N[C@@H](CCC(=O)O)C(=O)N[C@@H](CCCNC(=N)N)C(=O)N[C@H](C(N)=O)C(C)C)[C@@H](C)CC)C(=O)O) [peptide of SEQ ID NO: 26] | – | – | – | – | > 100 | 0.6 |
| IVLSLDVPIKLK([AEEA-AEEA-γGlu-C18 diacid])QILLKQERQK[Aib]QRQKAEKNKQILAQV-NH2 (N-terminus assumed; SMILES CC[C@H](C)[C@H](N)C(=O)N[C@H](C(=O)N[C@@H](CC(C)C)C(=O)N[C@@H](CO)C(=O)N[C@@H](CC(C)C)C(=O)N[C@@H](CC(=O)O)C(=O)N[C@H](C(=O)N1CCC[C@H]1C(=O)N[C@H](C(=O)N[C@@H](CCCCN)C(=O)N[C@@H](CC(C)C)C(=O)N[C@@H](CCCCNC(=O)COCCOCCNC(=O)COCCOCCNC(=O)CC[C@H](NC(=O)CCCCCCCCCCCCCCCCC(=O)O)C(=O)O)C(=O)N[C@@H](CCC(N)=O)C(=O)N[C@H](C(=O)N[C@@H](CC(C)C)C(=O)N[C@@H](CC(C)C)C(=O)N[C@@H](CCCCN)C(=O)N[C@@H](CCC(N)=O)C(=O)N[C@@H](CCC(=O)O)C(=O)N[C@@H](CCCNC(=N)N)C(=O)N[C@@H](CCC(N)=O)C(=O)N[C@@H](CCCCN)C(=O)NC(C)(C)C(=O)N[C@@H](CCC(N)=O)C(=O)N[C@@H](CCCNC(=N)N)C(=O)N[C@@H](CCC(N)=O)C(=O)N[C@@H](CCCCN)C(=O)N[C@@H](C)C(=O)N[C@@H](CCC(=O)O)C(=O)N[C@@H](CCCCN)C(=O)N[C@@H](CC(N)=O)C(=O)N[C@@H](CCCCN)C(=O)N[C@@H](CCC(N)=O)C(=O)N[C@H](C(=O)N[C@@H](CC(C)C)C(=O)N[C@@H](C)C(=O)N[C@@H](CCC(N)=O)C(=O)N[C@H](C(N)=O)C(C)C)[C@@H](C)CC)[C@@H](C)CC)[C@@H](C)CC)C(C)C)C(C)C) [peptide of SEQ ID NO: 22] | – | – | – | – | > 100 | 1.2 |
